From US20240174992A1, “SPLIT MODIFIED DEHALOGENASE VARIANTS” (Promega Corporation, priority 2022, published 2024) come the findings set out here.

Experiment in all cases: cell-based or functional assay
The target in assay [1] is spHT 195 C-terminal fragment [196-297] fused to FRB or FKBP.
Assay [2] has as its target spHT 80 C-terminal fragment [81-297] fused to FRB or FKBP.
Assay [3] has as its target spHT 133 C-terminal fragment [134-297] fused to FRB or FKBP.
The target in assay [4] is spHT 145 C-terminal fragment [146-297] fused to FRB or FKBP.
The target in assay [5] is spHT 157 C-terminal fragment [158-297] fused to FRB or FKBP.
Assay [6] has as its target spHT 19 C-terminal fragment [20-297] fused to FRB or FKBP.
Assay [7] has as its target spHT 180 C-terminal fragment [181-297] fused to FRB or FKBP.

B1: spHT 195 N-terminal fragment [1-195] fused to FRB or FKBP (protein, part only; not given: FRB or FKBP partner, orientation, part only)
chain, part: MAEIGTGFPFDPHYVEVLGERMHYVDVGPRDGTPVLFLHGNPTSSYVWRNIIPHVAPTHRCIAPDLIGMGKSDKPDLGYFFDDHVRFMDAFIEALGLEEVVLVIHDWGSALGFHWAKRNPERVKGIAFMEFIRPIPTWDEWPEFARETFQAFRTTDVGRKLIIDQNVFIEGTLPMGVVRPLTEVEMDHYREPFLN
Consider B1, for which, in assay [1], the fold increase in JF646 fluorescence with 50 nM rapamycin (E. coli lysates) is more than 2 fold.

B2: spHT 80 N-terminal fragment [1-80] fused to FRB or FKBP (protein, part only; not given: FRB or FKBP partner, orientation, part only)
chain, part: MAEIGTGFPFDPHYVEVLGERMHYVDVGPRDGTPVLFLHGNPTSSYVWRNIIPHVAPTHRCIAPDLIGMGKSDKPDLGYF
In assay [2], B2 showed a fold increase in JF646 fluorescence with 50 nM rapamycin (E. coli lysates) of more than 2 fold.

B3: spHT 133 N-terminal fragment [1-133] fused to FRB or FKBP (protein, part only; not given: FRB or FKBP partner, orientation, part only)
chain, part: MAEIGTGFPFDPHYVEVLGERMHYVDVGPRDGTPVLFLHGNPTSSYVWRNIIPHVAPTHRCIAPDLIGMGKSDKPDLGYFFDDHVRFMDAFIEALGLEEVVLVIHDWGSALGFHWAKRNPERVKGIAFMEFIR
B3 had a fold increase in JF646 fluorescence with 50 nM rapamycin (E. coli lysates) in assay [3] of more than 2 fold.

B4: spHT 145 N-terminal fragment [1-145] fused to FRB or FKBP (protein, part only; not given: FRB or FKBP partner, orientation, part only)
chain, part: MAEIGTGFPFDPHYVEVLGERMHYVDVGPRDGTPVLFLHGNPTSSYVWRNIIPHVAPTHRCIAPDLIGMGKSDKPDLGYFFDDHVRFMDAFIEALGLEEVVLVIHDWGSALGFHWAKRNPERVKGIAFMEFIRPIPTWDEWPEFA
For the molecule B4, in assay [4], the fold increase in JF646 fluorescence with 50 nM rapamycin (E. coli lysates) is more than 2 fold.

B5: spHT 157 N-terminal fragment [1-157] fused to FRB or FKBP (protein, part only; not given: FRB or FKBP partner, orientation, part only)
chain, part: MAEIGTGFPFDPHYVEVLGERMHYVDVGPRDGTPVLFLHGNPTSSYVWRNIIPHVAPTHRCIAPDLIGMGKSDKPDLGYFFDDHVRFMDAFIEALGLEEVVLVIHDWGSALGFHWAKRNPERVKGIAFMEFIRPIPTWDEWPEFARETFQAFRTTDV
B5 showed a fold increase in JF646 fluorescence with 50 nM rapamycin (E. coli lysates) in assay [5] of more than 2 fold.
Consider MAEIGTGFPFDPHYVEVLG (peptide, part only; not given: FRB or FKBP partner, orientation, part only) [spHT 19 N-terminal fragment [1-19] fused to FRB or FKBP], for which, in assay [6], the increase in JF646 fluorogenic signal at a N:C fragment ratio of 10 was 25% and the increase in TMR labeling efficiency on raising the N:C fragment ratio from 1.25 to 10 is more than 100%.

B6: spHT 180 N-terminal fragment [1-180] fused to FRB or FKBP (protein, part only; not given: FRB or FKBP partner, orientation, part only)
chain, part: MAEIGTGFPFDPHYVEVLGERMHYVDVGPRDGTPVLFLHGNPTSSYVWRNIIPHVAPTHRCIAPDLIGMGKSDKPDLGYFFDDHVRFMDAFIEALGLEEVVLVIHDWGSALGFHWAKRNPERVKGIAFMEFIRPIPTWDEWPEFARETFQAFRTTDVGRKLIIDQNVFIEGTLPMGVVRP
For B6, the fold increase in JF646 fluorescence with 50 nM rapamycin (E. coli lysates) in assay [7] is more than 2 fold.
